Laboratory results reported in the supplement of paper PMC10567573.

B1: ZNF8 (parent)
chain: RIHTGERPYMCKECGKAFSQNSSL

Variants of: B1
Assay: protein stability index of a GFP-peptide fusion (GPS, HEK-293T) (PSI 1-6); higher = more stable
Conditions: c terminus: a fixed tail appended
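Also: lentivirally expressed fusions sorted by FACS into six bins by GFP to DsRed ratio, PSI derived from sequencing read proportions per bin multiplied by bin number.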

Protein stability index: each site, then its substitutions
Y9: G 3.21, L 2.43, C 4.27, V 2.71, P 2.48, K 1.83, H 2.86, T 2.42, D 3.29, W 2.19, N 2.7, Q 2.75, A 3.88, R 2.02, E 3.27, I 2.21, S 2.2, F 3.21, M 2.6
K12: T 2.15, R 1.99, Q 2.11, W 1.51, H 1.96, D 3.02, Y 2.27, L 1.72, V 2.07, C 2.16, M 2.52, A 3.12, N 2.66, F 1.8, S 2.46, E 2.9, P 2.54, G 2.38, I 2.17
T4: R 2.04, S 2.81, W 1.89, I 2.68, H 2.43, D 2.74, F 2.42, G 2.19, M 1.88, V 2.59, K 2.03, Q 3.24, P 3.3, A 2.21, E 3.16, L 2.16, N 2.91, Y 2.1, C 3.04
E13: R 1.87, L 2.3, P 2.07, S 1.95, A 2.08, H 2.14, N 2.35, Q 2.24, T 1.96, D 1.39, F 1.59, Y 1.92, C 1.85, V 2.1, G 1.94, I 1.88, K 1.78, M 2.05
C14: I 1.93, G 3.18, A 3.1, K 3.58, V 2.72, P 2.99, N 3.15, R 2.51, Y 2.2, D 3.48, S 2.74, H 2.5, Q 3, L 2.42, M 2.29, E 3.07, T 2.81, W 2.12, F 2.65
G5: P 3.02, N 2.44, Q 2.47, S 2.53, R 2.13, C 3.78, F 2.09, Y 2.73, V 2.04, T 2.31, I 1.83, M 2.62, D 2.64, L 2.01, E 3.37, W 2.49, K 2.5, A 2.98, H 2.63
G15: T 3.05, P 2.54, S 3.2, C 2.16, A 3.37, Y 1.62, H 2.32, I 1.98, Q 3.26, E 3.46, M 2.67, N 2.33, K 2.99, L 3.05, V 2.33, F 2.09, R 2.76, D 3.25
E6: C 1.68, K 2.35, P 2.34, G 1.5, R 1.71, L 2, V 1.98, S 1.33, Y 1.88, I 1.68, Q 2.2, W 2.27, D 2.28, N 2.24, H 2.36, F 2.44, T 2.36, A 1.91, M 2.7
M10: R 1.95, C 3.11, G 2.7, S 2.26, L 2.74, F 2.31, N 2.12, Y 2.24, W 2.3, E 3.1, A 2.64, D 2.84, Q 3.16, K 1.75, H 2.52, P 2.62, I 2.69, T 3.03, V 2.24
S19: E 3.26, C 3.28, D 3.09, A 2.66
H3: P 2.38, C 3.28, T 2.8, Y 2.33, F 1.9, K 2.46, S 2.38, W 2.05, Q 2.47, R 1.96, G 3.12, A 1.99, N 2.81, M 2.49, I 2.74, L 2.25, E 3.1, V 2.05, D 2.91
R1: Y 2.2, Q 2.75, P 3.17, M 3.04, N 2.85, V 2.88, S 3.19, W 2.27, T 3.22
C11: D 2.78, Y 2.28, Q 3.04, W 1.98, M 2.82, H 2.75, S 2.99, T 2.48, P 2.84, A 2.73, E 3.42, F 2.36, N 2.81, K 3.08, L 2.68, G 3.28, I 2.19, R 2.67, V 2.72
K16: P 2.06, Y 1.61, V 1.71, G 2.41, M 2.63, H 2.29, E 2.97, A 2.24, F 2.52, D 2.52, T 2.73, L 1.71, S 2.05, I 2.08, R 2.3, C 1.82, W 2.66, N 1.8, Q 2.27
A17: T 3.29, L 2.47, H 2.42, R 3.04, G 2.42, I 2.41, V 3.24, Q 3.01, N 2.99, K 3, F 2.42, S 2.94, C 2.46, P 2.09, D 2.84, Y 2.37, M 2.67, E 2.95, W 2.65
F18: A 2.93, I 2.53, T 2.85, Q 2.79, G 3.35, R 3.25, V 2.83, K 3.29, N 3.83, E 3.64, L 2.44, S 3.57, D 3.84, P 3.45, M 2.76, Y 2.39, H 3.59, C 3.03, W 1.99
I2: T 1.74, R 2.94, E 2.87, G 2.78, V 2.29, M 2.44, H 2.38, K 2.51, L 2.35, Y 2.73, D 2.43, P 3.72, Q 3.57, A 2.41, F 2.5, C 2.85, N 3.13, S 2.75, W 2.33
P8: E 3.22, D 3.23, G 2.53, N 2.04, F 2.28, R 2.85, L 2.34, M 2.98, S 2.44, C 2.31, I 2.43, T 2.96, V 2.67, W 2.19, K 2.03, Q 2.99, Y 2.62, A 2.75, H 2.12
R7: A 2.6, S 2.53, K 2.35, E 3.85, V 2.37, L 2.65, F 2.99, W 2.9, C 3.77, P 2.44, T 4, D 3.36, N 3.38, Y 2.39, I 2.6, M 2.77, Q 3.2, G 3.23, H 3.36
